# Assay results from paper PMC11109279, “Heliorhodopsin-mediated light-modulation of ABC transporter” (Nature Communications, 2024).
# Substitutions are numbered along the chain they refer to.
# T1: OcHeR (Ornithinimicrobium cerasi, UniProt A0A285W045)
# T1 construct: gene SAMN05421879_12810; purified from E. coli C43(DE3) grown with all-trans-retinal; DDM, Ni-NTA; homodimer
# T1 sequence (A0A285W045 1-266): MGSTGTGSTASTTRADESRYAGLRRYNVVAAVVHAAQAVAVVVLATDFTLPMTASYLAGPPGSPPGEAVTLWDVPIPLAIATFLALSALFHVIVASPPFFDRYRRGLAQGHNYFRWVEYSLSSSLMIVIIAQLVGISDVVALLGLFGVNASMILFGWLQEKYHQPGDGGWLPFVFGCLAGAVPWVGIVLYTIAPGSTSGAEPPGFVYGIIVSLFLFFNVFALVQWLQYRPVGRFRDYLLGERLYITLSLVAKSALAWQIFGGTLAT
# T2: OmrDE with OcHeR WT (Ornithinimicrobium cerasi, UniProt A0A285VW85+A0A285VWG3)
# T2 construct: gene SAMN05421879_12812; E. coli C43(DE3), DDM, Ni-NTA; with Heliorhodopsin
# T2 sequence (A0A285VW85 1-577): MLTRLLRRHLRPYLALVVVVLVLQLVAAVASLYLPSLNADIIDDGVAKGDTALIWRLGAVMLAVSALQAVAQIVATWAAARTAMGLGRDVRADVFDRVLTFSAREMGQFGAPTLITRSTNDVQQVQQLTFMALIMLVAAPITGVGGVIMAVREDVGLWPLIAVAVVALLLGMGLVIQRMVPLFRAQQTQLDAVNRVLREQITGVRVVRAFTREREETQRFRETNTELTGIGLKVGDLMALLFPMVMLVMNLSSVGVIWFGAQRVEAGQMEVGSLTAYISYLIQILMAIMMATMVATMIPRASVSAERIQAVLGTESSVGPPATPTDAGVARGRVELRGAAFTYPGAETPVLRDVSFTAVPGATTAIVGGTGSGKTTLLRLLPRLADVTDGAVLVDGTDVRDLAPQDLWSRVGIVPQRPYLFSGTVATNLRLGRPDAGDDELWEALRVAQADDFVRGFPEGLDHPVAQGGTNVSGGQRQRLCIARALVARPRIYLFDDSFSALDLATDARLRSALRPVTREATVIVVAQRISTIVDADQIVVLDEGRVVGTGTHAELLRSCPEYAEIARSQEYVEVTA
# T2 sequence (A0A285VWG3 1-661): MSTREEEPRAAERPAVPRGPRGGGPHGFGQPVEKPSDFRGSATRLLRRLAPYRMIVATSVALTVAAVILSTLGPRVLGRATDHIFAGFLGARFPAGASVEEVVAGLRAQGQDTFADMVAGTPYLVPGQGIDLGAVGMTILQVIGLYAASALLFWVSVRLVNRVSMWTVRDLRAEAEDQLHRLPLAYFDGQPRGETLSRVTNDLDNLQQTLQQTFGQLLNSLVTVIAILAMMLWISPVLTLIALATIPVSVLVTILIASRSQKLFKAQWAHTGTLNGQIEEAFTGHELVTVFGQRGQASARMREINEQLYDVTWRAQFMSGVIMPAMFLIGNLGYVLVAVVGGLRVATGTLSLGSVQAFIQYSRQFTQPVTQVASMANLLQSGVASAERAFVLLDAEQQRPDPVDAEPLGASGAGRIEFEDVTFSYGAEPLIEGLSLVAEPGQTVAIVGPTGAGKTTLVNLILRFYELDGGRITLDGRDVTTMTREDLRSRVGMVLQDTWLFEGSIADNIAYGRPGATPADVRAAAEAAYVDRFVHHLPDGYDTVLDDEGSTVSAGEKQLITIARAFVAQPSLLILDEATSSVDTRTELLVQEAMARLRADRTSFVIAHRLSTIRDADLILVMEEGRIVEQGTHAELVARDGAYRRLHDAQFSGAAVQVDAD
# T2 sequence (A0A285W045 1-266 partner): T1 sequence (A0A285W045 1-266)
# T3: heterodimeric multidrug resistance ABC transporter OmrDE (Omithinimicrobium cerasi strain USBA17B2, UniProt A0A285VW85 1-577; A0A285VWG3 1-661)
# T3 sequence (looked up) 1: T2 sequence (A0A285VW85 1-577)
# T3 sequence (looked up) 2: T2 sequence (A0A285VWG3 1-661)
# T4: Omithinimicrobium cerasi strain USBA17B2 heliorhodopsin (OcHeR) WT (Omithinimicrobium cerasi strain USBA17B2, UniProt A0A285W045 1-266, retinal Schiff base linked to K252)
# T4 construct: gene codon-optimized for E. coli and chemically synthesized; source: E. coli C43 (DE3), purified (DDM-solubilized membrane fraction, Ni2+-NTA agarose)
# T4 sequence (looked up): T1 sequence (A0A285W045 1-266)
# B1: Heliorhodopsin OcHeR (Ornithinimicrobium cerasi strain USBA17B2 (spelled 'Omithinimicrobium cerasi' in the main text)) (protein)
# chain: T1 sequence (A0A285W045 1-266)
# B2: OcHeR R102Q (natural protein)
# chain: T1 sequence (A0A285W045 1-266) with R102Q
# modifications: retinal Schiff base linked to K252
# B3: NBD-truncated OmrDE (OmrD^tcE^tc) (complex)
# chain 1: MLTRLLRRHLRPYLALVVVVLVLQLVAAVASLYLPSLNADIIDDGVAKGDTALIWRLGAVMLAVSALQAVAQIVATWAAARTAMGLGRDVRADVFDRVLTFSAREMGQFGAPTLITRSTNDVQQVQQLTFMALIMLVAAPITGVGGVIMAVREDVGLWPLIAVAVVALLLGMGLVIQRMVPLFRAQQTQLDAVNRVLREQITGVRVVRAFTREREETQRFRETNTELTGIGLKVGDLMALLFPMVMLVMNLSSVGVIWFGAQRVEAGQMEVGSLTAYISYLIQILMAIMMATMVATMIPRASVSAERIQAVLGTESSVGPPATPTDAGVARGR
# chain 2: MSTREEEPRAAERPAVPRGPRGGGPHGFGQPVEKPSDFRGSATRLLRRLAPYRMIVATSVALTVAAVILSTLGPRVLGRATDHIFAGFLGARFPAGASVEEVVAGLRAQGQDTFADMVAGTPYLVPGQGIDLGAVGMTILQVIGLYAASALLFWVSVRLVNRVSMWTVRDLRAEAEDQLHRLPLAYFDGQPRGETLSRVTNDLDNLQQTLQQTFGQLLNSLVTVIAILAMMLWISPVLTLIALATIPVSVLVTILIASRSQKLFKAQWAHTGTLNGQIEEAFTGHELVTVFGQRGQASARMREINEQLYDVTWRAQFMSGVIMPAMFLIGNLGYVLVAVVGGLRVATGTLSLGSVQAFIQYSRQFTQPVTQVASMANLLQSGVASAERAFVLLDAEQQRPDPVDAEPLGASGAGR
# Columns and labels:
# [1] = target: heterodimeric multidrug resistance ABC transporter OmrDE (Omithinimicrobium cerasi strain USBA17B2); test: ITC; OcHeR injected into the Omr protein; 25 °C, 500 rpm; buffer SD; MicroCal ITC200; one site binding model (sequential binding site model for R233Q); perfect saturation was not achieved
# [2] = target: T1, OcHeR; test: UV-visible absorption spectroscopy of purified pigment; type: binding; settings: covalent; Schiff base to K252; neutral pH
# [3] = target: T5, OmrDE (Ornithinimicrobium cerasi, UniProt A0A285VW85+A0A285VWG3); test: ATP hydrolysis, colorimetric Pi (phosphomolybdate); type: biochemical
# T5 construct: gene SAMN05421879_12812; co-expressed heterodimer of two half-transporters; codon-optimized, E. coli C43(DE3), DDM-solubilized, Ni-NTA
# [4] = target: T5, OmrDE; test: ATP hydrolysis, colorimetric Pi (phosphomolybdate); type: biochemical; settings: read-out: Km (mM, ATP); Mg-ATP (MgSO4:ATP 1.5:1), pH 7.0, 25 °C, 0.02% DDM; no OcHeR
# Text: ATP hydrolysis, colorimetric Pi (phosphomolybdate) on OmrDE
# [5] = target: T2, OmrDE with OcHeR WT; test: ATP hydrolysis, colorimetric Pi (phosphomolybdate); type: biochemical; settings: read-out: Km (mM, ATP); Mg-ATP (MgSO4:ATP 1.5:1), pH 7.0, 25 °C, 0.02% DDM; OcHeR WT 1:1, dark
# Text: ATP hydrolysis, colorimetric Pi (phosphomolybdate) on OmrDE with OcHeR WT
# [6] = target: Glu118 (position 118, …); test: UV-vis; settings: not stated for the titration. Purified protein was kept in buffer SD with 150 mM NaCl.; not stated for the titration. Purification buffer SD was 150 mM NaCl, 50 mM Tris-HCl pH 7.0, 0.02% DDM. pH was adjusted by adding HCl and NaOH.; Dark/ground state, retinal-bound, detergent-solubilised, without OmrDE
# [7] = target: T3, heterodimeric multidrug resistance ABC …; test: cell-based or functional assay
# [8] = target: T4, Omithinimicrobium cerasi strain …; test: ITC; OcHeR injected into the Omr protein; 25 °C, 500 rpm; buffer SD; MicroCal ITC200; one site binding model (sequential binding site model for R233Q); perfect saturation was not achieved; settings: both partners purified
molecule,measurement,setting,value
OcHeR R235Q (natural protein),Kd,[1],26 µM
same,dH,[1],2.4 kcal/mol
CC1=C(/C=C/C(C)=C/C=C/C(C)=C/C=O)C(C)(C)CCC1 [all-trans-retinal],retinal attachment site,[2],retinal Schiff base linked to K252 of OcHeR
N=C(N)c1ccc(-c2cc3ccc(C(=N)N)cc3[nH]2)cc1 [DAPI],IC50,[3],47.4 µM
OcHeR R233Q (natural protein),Kd of the first binding (sequential binding site model),[1],42.9 µM
same,Kd of the second binding (sequential binding site model),[1],25.3 µM
same,dH of the first binding (sequential binding site model),[1],5.9 kcal/mol
same,dH of the second binding (sequential binding site model),[1],38.7 kcal/mol
OcHeR W225A (natural protein),Kd,[1],16.9 µM
same,dH,[1],11.8 kcal/mol
Nc1ncnc2c1ncn2[C@@H]1O[C@H](COP(=O)(O)OP(=O)(O)OP(=O)(O)O)[C@@H](O)[C@H]1O [ATP],Km,[4],19.2 ± 12.3 mM
same,Km,[5],10.4 ± 7 mM
OcHeR R229Q (natural protein),Kd,[1],5.1 µM
same,dH,[1],8.6 kcal/mol
B1,pKa,[6],2.9
B2,"kcat/Km of ATP hydrolysis of purified OmrDE with OcHeR R102Q (1:1), absence of light",[7],21.4 M^−1 S^−1
same,"kcat/Km of ATP hydrolysis of purified OmrDE with OcHeR R102Q (1:1), presence of light (532 nm)",[7],18.1 M^−1 S^−1
B3,Kd,[8],38.9 µM
